# Results from patent publication US20210145976A1 (ARO BIOTHERAPEUTICS, published 2021).
# Substitutions are numbered along the chain they refer to.
# B1: SEQ ID NO 34 (designed binder)
# chain: MLPAPKNLVVSRVTEDSARLSWTAPDAAFDSFAITYIEWWDVGEAIGLKVPGSERSYDLTGLKPGTEYRVHIQGVKGGNNSYPLDALFTT
# notes: FN3 domain
# B2: SEQ ID NO 37 (designed binder)
# chain: MLPAPKNLVVSRVTEDSARLSWTAPDAAFDSFHIIYTEEEKEGEAIYLRVPGSERSYDLTGLKPGTEYLVEIEGVKGGKRSVPLNASFTT
# notes: FN3 domain
# B3: SEQ ID NO 54 (designed binder)
# chain: MLPAPKNLVVSRVTEDSARLSWTAPDAAFDSFQILYQENAFEGEAIVLTVPGSERSYDLTGLKPGTEYWVYIYGVKGGYPSVPLSAIFTT
# notes: FN3 domain
# B4: SEQ ID NO 35 (designed binder)
# chain: MLPAPKNLVVSRVTEDSARLSWTAPDAAFDSFEIAYFEAIWNGEAIYLTVPGSERSYDLTGLKPGTEYQVEIRGVKGGPTSRPLFAWFTT
# notes: FN3 domain
# B5: SEQ ID NO 42 (designed binder)
# chain: MLPAPKNLVVSRVTEDSARLSWTAPDAAFDSFTIEYYESFYGGEAIVLTVPGSERSYDLTGLKPGTEYYVSIYGVKGGWLSRPLSAIFTT
# notes: FN3 domain
# B6: SEQ ID NO 55 (designed binder)
# chain: B5 chain with T33I, Y37W, S39F, F40V, Y41G, G42Y, Y69W, S71A, W79D, R82K
# notes: FN3 domain
# B7: SEQ ID NO 46 (designed binder)
# chain: B5 chain with Y37F, S39F, F40T, Y41G, G42T, W79L, R82A
# notes: FN3 domain
# B8: SEQ ID NO 57 (designed binder)
# chain: MLPAPKNLVVSRVTEDSARLSWTAPDAAFDSFSIKYLEWWQDGEAIVLTVPGSERSYDLTGLKPGTEYYVHIAGVKGGYRSYPLSAIFTT
# notes: FN3 domain
# B9: SEQ ID NO 43 (designed binder)
# chain: B5 chain with T33Y, F40Y, Y41P, Y69D, S71Y, W79Y, L80W
# notes: FN3 domain
# B10: SEQ ID NO 60 (designed binder)
# chain: MLPAPKNLVVSRVTEDSARLSWTAPDAAFDSFTIWYAEAIGHGEAIVLTVPGSERSYDLTGLKPGTEYWVDIWGVKGGQQSKPLSAIFTT
# notes: FN3 domain
# B11: SEQ ID NO 53 (designed binder)
# chain: B8 chain with S33F, K35S, L37I, Q41D, D42L, Y69H, H71E, A73F, Y79T, R80Q
# notes: FN3 domain
# B12: SEQ ID NO 56 (designed binder)
# chain: B5 chain with T33V, Y37F, S39A, F40L, Y41E, Y69F, S71G, W79P, R82K
# notes: FN3 domain
# B13: SEQ ID NO 45 (designed binder)
# chain: MLPAPKNLVVSRVTEDSARLSWTAPDAAFDSFAIYYLESYPEGEAIVLTVPGSERSYDLTGLKPGTEYWVGIDGVKGGTWSSPLSAIFTT
# notes: FN3 domain
# B14: SEQ ID NO 47 (designed binder)
# chain: B10 chain with I40L, H42D, W69F, W73Y, Q79F, Q80W, K82L
# notes: FN3 domain
# B15: SEQ ID NO 48 (designed binder)
# chain: B5 chain with T33V, Y37F, S39Q, Y41N, G42L, Y69W, S71G, R82H
# notes: FN3 domain
# B16: SEQ ID NO 38 (designed binder)
# chain: MLPAPKNLVVSRVTEDSARLSWTAPDAAFDSFHIAYEESHTTGEAIFLRVPGSERSYDLTGLKPGTEYSVSIEGVKGGHYSPPLTAKFTT
# notes: FN3 domain
# Target: T1, CD71 on SK-BR-3 cells (human, UniProt P02786 1-760)
# T1 sequence (P02786 whole entry): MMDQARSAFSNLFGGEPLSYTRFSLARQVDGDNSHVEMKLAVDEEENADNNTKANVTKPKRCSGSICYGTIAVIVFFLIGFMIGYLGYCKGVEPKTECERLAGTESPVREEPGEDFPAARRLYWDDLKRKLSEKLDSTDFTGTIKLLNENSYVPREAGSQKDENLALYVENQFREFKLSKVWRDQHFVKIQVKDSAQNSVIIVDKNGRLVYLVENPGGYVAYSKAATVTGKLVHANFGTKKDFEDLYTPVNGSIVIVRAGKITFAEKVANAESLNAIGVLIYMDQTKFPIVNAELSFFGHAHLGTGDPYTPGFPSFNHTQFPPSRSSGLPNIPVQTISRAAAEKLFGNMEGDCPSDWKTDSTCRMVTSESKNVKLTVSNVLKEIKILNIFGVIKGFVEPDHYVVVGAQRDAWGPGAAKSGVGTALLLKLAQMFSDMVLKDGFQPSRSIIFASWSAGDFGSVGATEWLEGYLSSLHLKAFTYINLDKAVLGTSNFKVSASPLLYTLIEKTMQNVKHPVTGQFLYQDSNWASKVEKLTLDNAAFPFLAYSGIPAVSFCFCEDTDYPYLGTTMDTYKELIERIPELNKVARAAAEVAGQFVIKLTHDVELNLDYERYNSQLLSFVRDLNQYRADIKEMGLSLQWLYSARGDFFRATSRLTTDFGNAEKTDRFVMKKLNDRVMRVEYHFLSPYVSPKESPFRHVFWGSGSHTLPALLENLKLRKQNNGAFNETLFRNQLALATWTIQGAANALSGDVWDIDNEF
# Assay: cell-based or functional assay
row,Binder,"IC50, SKBR-3 cell viability, MMAF conjugate [nM]"
1,B1,0.37
2,B2,0.15
3,B3,0.4
4,B4,2.5
5,B5,0.19
6,B6,0.026
7,B7,2.69
8,B8,3.13
9,B9,0.069
10,B10,0.45
11,B11,0.07
12,B12,0.24
13,B13,8.3
14,B14,5.9
15,B15,0.42
16,B16,3.82

# Target: T1, CD71 on SK-BR-3 cells
# Assay: cell-based or functional assay
# Remark: another data set of the same source
Binder,"IC50, SK-BR3 viability, MMAF conjugate, no competitor [nM]","IC50, SK-BR3 viability, MMAF conjugate, with 0.6 uM holo-human transferrin [nM]"
B1,1.3,196
B2,0.7,143
B3,0.13,5
B4,0.7,41.5
B5,2.4,~70
B6,0.15,5.5
B7,3,~100
B8,0.38,5.3
B9,0.97,~80
B10,0.21,14.4
B11,3.6,~90
B12,0.35,14.7
B13,0.05,0.9
B14,1.6,~85
B15,1.3,~70
B16,4,~120

# Target: T2, recombinant biotinylated CD71 extracellular domain (Sino Biologics) with an N-terminal 6His tag (human, UniProt P02786 89-760, biotinylated (sites not given))
# T2 construct: extracellular domain; also called hCD71; huCD71
# T2 sequence (P02786 other isoform, or with tags, fused parts or gaps): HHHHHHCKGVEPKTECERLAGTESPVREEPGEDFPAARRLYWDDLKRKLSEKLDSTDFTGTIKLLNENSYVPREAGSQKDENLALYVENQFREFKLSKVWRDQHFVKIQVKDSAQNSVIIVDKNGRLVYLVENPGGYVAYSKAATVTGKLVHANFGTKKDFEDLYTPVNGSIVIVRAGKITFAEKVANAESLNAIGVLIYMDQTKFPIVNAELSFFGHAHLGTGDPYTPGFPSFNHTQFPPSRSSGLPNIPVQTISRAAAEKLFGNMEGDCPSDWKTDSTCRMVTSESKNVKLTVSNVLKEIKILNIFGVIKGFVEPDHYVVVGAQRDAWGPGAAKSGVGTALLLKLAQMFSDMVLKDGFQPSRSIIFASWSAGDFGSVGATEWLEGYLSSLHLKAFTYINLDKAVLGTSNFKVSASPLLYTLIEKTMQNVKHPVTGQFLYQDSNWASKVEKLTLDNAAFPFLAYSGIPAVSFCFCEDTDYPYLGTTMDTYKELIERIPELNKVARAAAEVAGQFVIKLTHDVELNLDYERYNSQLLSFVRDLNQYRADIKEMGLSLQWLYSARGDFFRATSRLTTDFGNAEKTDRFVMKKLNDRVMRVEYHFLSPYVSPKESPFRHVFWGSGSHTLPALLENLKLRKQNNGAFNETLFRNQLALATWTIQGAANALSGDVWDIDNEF
# Assay: screening ELISA
# Experimental: (§1) To screen for FN3 domains that specifically bind CD71, streptavidin-coated Maxisorp plates (Nunc catalog 436110) were blocked for 1 hour in Starting Block T20 (Pierce) and then coated with biotinylated CD71 (using same antigen as in panning) or negative controls (an unrelated Fc-fused recombinant protein and human serum albumin) for 1 hour. Plates were rinsed with TBST and diluted lysate was applied to plates for 1 hour. Following additional rinses, wells were treated with HRP-conjugated anti-V5 tag antibody (Abcam, ab1325), for 1 hour and then assayed with POD (Roche, 11582950001).
row,hCD71,Binder
1,310000,B1
2,1.27e+06,B2
3,6.99e+06,B3
4,3.24e+06,B4
5,2.83e+06,B5
6,1.11e+07,B6
7,113000,B7
8,1.9e+06,B8
9,1.62e+06,B9
10,4.48e+06,B10
11,1.01e+06,B11
12,1.13e+07,B12
13,1.93e+06,B13
14,265000,B14
15,943000,B15
16,840000,B16

# Target: T2, recombinant biotinylated CD71 …
# Assay: screening ELISA, ratio
# Experimental: as §1
row,huCD71/Fc,Binder
1,12,B1
2,467,B2
3,1130,B3
4,2130,B4
5,478,B5
6,1440,B6
7,37,B7
8,113,B8
9,199,B9
10,691,B10
11,110,B11
12,1510,B12
13,669,B13
14,50.9,B14
15,337,B15
16,202,B16
